Measurements taken from US20110165145A1 (published 2011).

B1: M0072-G06 Fab (Fab, V domains shown)
VH: EVQLLESGGGLVQPGGSLRLSCAASGFTFSEYVMWWVRQAPGKGLEWVSVISPSGGYTVYADSVKGRFTISRDNSKNTLYLQMNSLRAEDTAVYYCARDRGGATTLDYWGQGTLVTVSS
VL: DIQMTQSPSTLSASVGDRVTITCRASQTISSWLAWYQQKPGKAPKLMIYKAASLGSEVPSRFSGSGSGTEFTLTISSLQPEDFSTYYCQQYKTYPVTFGQGTRLEIKR
notes: soluble Fab (sFab); also called R0032-C05
B2: M0072-E03 Fab (Fab, V domains shown)
VH: EVQLLESGGGLVQPGGSLRLSCAASGFTFSEYEMSWVRQAPGKGLEWVSSIYSSGGWTKYTDSVKGRFTISRDNSKNTLYLQMNSLRAEDTAVYYCAKGVHYDSSGLPIDWYFDLWGRGTLVTVSS
VL: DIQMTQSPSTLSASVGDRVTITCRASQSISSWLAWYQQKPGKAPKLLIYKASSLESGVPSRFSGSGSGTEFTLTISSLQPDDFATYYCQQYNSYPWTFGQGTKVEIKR
notes: soluble Fab (sFab); also called R0032-C03
B3: M0068-E03 Fab (Fab, V domains shown)
VH: EVQLLESGGGLVQPGGSLRLSCAASGFTFSEYVMAWVRQAPGKGLEWVSSIVSSGGYTKYADSVKGRFTISRDNSKNTLYLQMNSLRAEDTAVYYCAKDMTYSGDAFDVWGQGTMVTVSS
VL: DIQMTQSPSSLSASVGDRVTITCRASQSINTYLNWYQQKPGKAPKVLIHAASTLESGVPSRFSGSGSATEFTLTISSLQPEDFATFYCQQSYSVPFTFGPGTRLSSKR
notes: soluble Fab (sFab); heavy constant part carries His6 and myc tags; also called R0032-C01
B4: M0072-C06 Fab (Fab, V domains shown)
VH: EVQLLESGGGLVQPGGSLRLSCAASGFTFSAYIMTWVRQAPGKGLEWVSSISPSGGYTVYADSVKGRFTISRDNSKNTLYLQMNSLRAEDTAVYYCARDSGFGDPFDYWGQGTMVTVSS
VL: DIQMTQSPSSLSASVGDRVTITCRASQSIRNYLNWYQQKPGKAPKLLIYAASKLEDGVPSRFSGSGTGTDFTLTIRSLQPEDFASYFCQQSYSSPGITFGPGTKVEIKR
notes: soluble Fab (sFab); also called R0032-A09
B5: M0070-H08 Fab (Fab, V domains shown)
VH: EVQLLESGGGLVQPGGSLRLSCAASGFTFSRYWMIWVRQAPGKGLEWVSSIRSSGETKYADSVKGRFTISRDNSKNTLYLQMNSLRAEDTAVYYCARGPLSDYYDSSGYYFDAFDIWGQGTMVTVSS
VL: DIQMTQSPSSLSASAGDRVTITCRASQSISSYLNWYQQKPGKAPNLLIYTTSNLQGGVPSRFSGSGSGTDFTLTISSLQPEDFATYYCQQGYSFPLTFGGGTKVEIKR
notes: soluble Fab (sFab); also called R0032-A07
B6: M0033-E05 Fab (Fab, V domains shown)
VH: EVQLLESGGGLVQPGGSLRLSCAASGFTFSHYSMWWVRQAPGKGLEWVSYIGPSGGHTRYADSVKGRFTISRDNSKNTLYLQMNSLRAEDTAVYYCARGLYYYDSSSVTHAFDLWGQGTMVTVSS
VL: DIQMTQSPSSLSASVGDRVTISCRASQGITNYLVWFQQKPGKAPRLLIYDASTLESGVPSRFSGSGSGTDFTLTISSLQPEDFATYYCQQADGFPLTFGEGTKVEMKR
notes: soluble Fab (sFab); also called R0032-A05
B7: M0080-G03 Fab (Fab, V domains shown)
VH: EVQLLESGGGLVQPGGSLRLSCAASGFTFSFYQMMWVRQAPGKGLEWVSSISPSGGRTYYADSVKGRFTISRDNSKNTLYLQMNSLRAEDTAVYYCAKDIGLGYCSSTSCYTGTPLDYWGQGTLVTVSS
VL: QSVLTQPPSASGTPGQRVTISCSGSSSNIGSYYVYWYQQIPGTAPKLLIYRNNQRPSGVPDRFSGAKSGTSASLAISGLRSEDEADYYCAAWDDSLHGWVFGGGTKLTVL
B8: M0073-C11 Fab (Fab, V domains shown)
VH: EVQLLESGGGLVQPGGSLRLSCAASGFTFSPYDMWWVRQAPGKGLEWVSSISSSGGITAYADSVKGRFTISRDNSKNTLYLQMNSLRAEDTAVYYCARAGYSSSWGYYYYGMDVWGQGTTVTVSS
VL: QSALTQPPSVSVSPGQTASITCSGDRLGDKYASWYQQKPGQSPVLVIYQDTKRPSGIPERFSGSNSGSTATLTISGTQAMDEADYYCQAWDSSTVVFGGGTKLTVL
B9: M0072-G06 IgG (parental) (antibody, V domains shown)
VH: B1 VH
VL: DIQMTQSPSTLSASVGDRVTITCRASQTISSWLAWYQQKPGKAPKLMIYKAASLGSEVPSRFSGSGSGTEFTLTISSLQPEDFSTYYCQQYKTYPVTFGQGTRLEIK
B10: M0072-E03 IgG (parental) (antibody, V domains shown)
VH: B2 VH
VL: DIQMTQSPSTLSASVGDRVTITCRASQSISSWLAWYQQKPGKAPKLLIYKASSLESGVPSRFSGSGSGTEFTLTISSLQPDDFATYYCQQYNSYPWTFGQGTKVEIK
B11: M0070-H08 IgG (parental) (antibody, V domains shown)
VH: B5 VH
VL: DIQMTQSPSSLSASAGDRVTITCRASQSISSYLNWYQQKPGKAPNLLIYTTSNLQGGVPSRFSGSGSGTDFTLTISSLQPEDFATYYCQQGYSFPLTFGGGTKVEIK
B12: M0072-C06 IgG (parental) (antibody, V domains shown)
VH: B4 VH
VL: DIQMTQSPSSLSASVGDRVTITCRASQSIRNYLNWYQQKPGKAPKLLIYAASKLEDGVPSRFSGSGTGTDFTLTIRSLQPEDFASYFCQQSYSSPGITFGPGTKVEIK

Target: insulin-like growth factor I (IGF-I) (UniProt P05019 49-118)
Test: cell-based or functional assay

insulin-like growth factor I (IGF-I), sequence (P05019 49-118 limits assumed): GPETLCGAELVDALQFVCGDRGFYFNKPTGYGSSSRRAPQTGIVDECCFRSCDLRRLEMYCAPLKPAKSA

Row | IGF-I stimulated Ba/F3 cell proliferation, sFab at 50 µg/ml | Binder
1 | ~30 % inhibition | B1
2 | ~30 % inhibition | B2
3 | ~30 % inhibition | B3
4 | ~30 % inhibition | B4

Target: T1, insulin-like growth factor II (IGF-II), amino acids 1-67 (human, UniProt P01344 25-91)
Test: cell-based or functional assay

T1 sequence (P01344 25-91): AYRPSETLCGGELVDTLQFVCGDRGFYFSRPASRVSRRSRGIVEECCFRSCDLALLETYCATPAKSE

Row | IC50, IGF-II stimulated Ba/F3 cell proliferation (MTS) | Binder
5 | 8.7 µg/mL | B1
6 | 2.27 µg/mL | B3
7 | 5.12 µg/mL | B4

Target: T2, IGF-IIE (amino acids 1-104 of pro-IGF-II) (human, UniProt P01344 25-128)
Test: cell-based or functional assay

T2 sequence (P01344 25-128): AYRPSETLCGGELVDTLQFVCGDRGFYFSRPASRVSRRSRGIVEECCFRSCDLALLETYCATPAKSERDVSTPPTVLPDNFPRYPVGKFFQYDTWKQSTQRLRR

Row | IC50, IGF-IIE stimulated Ba/F3 cell proliferation (MTS) | Binder
8 | 2.5 µg/mL | B1
9 | 5.74 µg/mL | B3
10 | 2.3 µg/mL | B4

Target: T1, insulin-like growth factor II (IGF-II), …
Test: SPR (Flexchip), Fab, 1st of duplicate

Row | Kd | Binder
11 | 0.58 nM | B1
12 | 0.75 nM | B2
13 | 0.93 nM | B3
14 | 3.3 nM | B5
15 | 5.2 nM | B4

Target: T2, IGF-IIE (amino acids 1-104 of …)
Test: SPR (Flexchip), Fab, 1st of duplicate

Row | Kd | Binder
16 | 0.56 nM | B1
17 | 0.87 nM | B6
18 | 0.096 nM | B2
19 | 0.66 nM | B3
20 | 0.36 nM | B5
21 | 0.52 nM | B4

Target: T1, insulin-like growth factor II (IGF-II), …
Test: SPR (Flexchip), Fab, 2nd of duplicate

Row | Kd | Binder
22 | 1.4 nM | B1
23 | 5.5 nM | B6
24 | 0.3 nM | B2
25 | 1.1 nM | B5
26 | 0.7 nM | B4

Target: T2, IGF-IIE (amino acids 1-104 of …)
Test: SPR (Flexchip), Fab, 2nd of duplicate

Row | Kd | Binder
27 | 0.89 nM | B1
28 | 0.22 nM | B2
29 | 0.39 nM | B5

Target: T1, insulin-like growth factor II (IGF-II), …
Test: competition SPR (BIACORE T100), affinity in solution, free ligand read on huIR-A ECD; measurement 1
Procedure: (§1) Competition SPR (BIACORE®) was performed under conditions of partially mass-transport limited conditions according to previously described methodology (Nieba et al., 1996). Approximately 16,700 relative response units (RU) of huIR-A (-exon11) ectodomain was coupled by standard amine chemistry to a BIACORE® CM5 chip sensor. Uncoated flow-cell surface was used as a reference. […] Regeneration of the surface was achieved by injection of 30 ul NaCltrate/NaCl pH 4.5. […] These Req estimates were subsequently plotted against total concentrations of Fab used and the resulting inhibition curve was utilised to calculate dissociation constant (KD).

Row | Kd | Binder
30 | 3.99 nM | B1
31 | 2.62 nM | B2
32 | 3.24 nM | B5
33 | 1.64 nM | B4

Target: T2, IGF-IIE (amino acids 1-104 of …)
Test: as above
Procedure: as §1

Row | Kd | Binder
34 | 6.36 nM | B1
35 | 29.3 nM | B7
36 | 5.32 nM | B2
37 | 20.2 nM | B8
38 | 4.83 nM | B5
39 | 3.95 nM | B4

Target: T1, insulin-like growth factor II (IGF-II), …
Test: competition SPR (BIACORE T100), affinity in solution, free ligand read on huIR-A ECD; measurement 2
Procedure: as §1

Row | Kd | Binder
40 | 2.52 nM | B4

Target: T2, IGF-IIE (amino acids 1-104 of …)
Test: as above
Procedure: as §1

Row | Kd | Binder
41 | 21.2 nM | B7
42 | 19.1 nM | B8
43 | 1.05 nM | B4

Target: T1, insulin-like growth factor II (IGF-II), …
Test: SPR, IgG on Protein G', then ligand, then BP; competitor BP2; 0 = no significant competition, 5 = competes strongly
Procedure: (§2) BIACORE® T100 and a CM5 chip coated with Protein G were utilised to set up following assay. Approximately 1000 RU of Protein G′ was immobilized on a CM5 chip using standard amine chemistry immobilization method.
(§3) 4) Protein G′ surface was finally regenerated by injection of 10 mM Glycine pH 1.5-injected at 30 ul/min for 60 sec.

Row | competition score | Binder
44 | 2 score 0-5 | B9
45 | 4 score 0-5 | B10
46 | 3 score 0-5 | B11
47 | 3 score 0-5 | B12

Target: T2, IGF-IIE (amino acids 1-104 of …)
Test: as above
Procedure: as §2, §3

Row | competition score | Binder
48 | 2 score 0-5 | B9
49 | 3 score 0-5 | B10
50 | 2 score 0-5 | B11
51 | 2 score 0-5 | B12

Target: T1, insulin-like growth factor II (IGF-II), …
Test: SPR, IgG on Protein G', then ligand, then BP; competitor BP4; 0 = no significant competition, 5 = competes strongly
Procedure: as §2, §3

Row | competition score | Binder
52 | 1 score 0-5 | B9
53 | 4 score 0-5 | B10
54 | 2 score 0-5 | B11
55 | 2 score 0-5 | B12

Target: T2, IGF-IIE (amino acids 1-104 of …)
Test: as above
Procedure: as §2, §3

Row | competition score | Binder
56 | 1 score 0-5 | B9
57 | 3 score 0-5 | B10
58 | 1 score 0-5 | B11
59 | 1 score 0-5 | B12
